The data set is described as follows: soluble on expression in E. coli; label from the status in PepcDB or PDB records.
Regarding “MGSDKIHHHHHHMIELDNIKICPLAGIDDAIIIQSLNKASLTTSTSAIGPAVAEMVTRHGAVLLRGFAPEGTSAMAALFASLQWKPLQYTYRSTPRTSVSEGIYTATEFPASEEIMLHSENAFQADWPTRIGFHCAVPARAGGETPIGSLEKITARIDTGLFDEFRRRGVSYVRNYSDYVDLPWQVVFQSSDRGDVEEYCKNHGIGFEWRNSGLRTWQACQGTATHPERGNEVWFNQAHMFHYTALGPEMASNLLSIFGEEELPRNAYYGDGGVIPKDAVEHIREAFSAERASFGWEKDDILLLDNMRYCHGRNPFEGPRQVLVSMGRGYASVVDSSH”, the “soluble on expression in E. coli” value is “not soluble”. Regarding “MSLRKRLTQLFPFLLPVRRIQRKLCFYTKMYLDRNHYAKAKAPEFLPFCIYETKSKLLNENTGMDIKYQENKVFNLRLAAEPVNGLLIRPGETFSFWQRVRYAEKNERYKDGLCVVNDELVTVPGGGLCHLSNLLFWLFLHTPLTIVERHAHEIKDFPSPDEDEPDGVDATIHEGWLDLKVKNDTNLTFQIELSIDGPYIYGRIFMDQAKGYSYEVVNRDKRFLQKEGKIFERVSVCRQVIDNKSKQVISENMLYTDVFEIGYPLPEGTAIAEEGHHHHHH”, the “soluble on expression in E. coli” value is reported as “soluble”.

For “MSVTVKRIIDNTVIVPKLPANEDPVEYPADYFRKSKEIPLYINTTKSLSDLRGYVYQGLKSGNVSIIHVNSYLYGALKDIRGKLDKDWSSFGINIGKAGDTIGIFDLVSLKALDGVLPDGVSDASRTSADDKWLPLYLLGLYRVGRTQMPEYRKKLMDGLTNQCKMINEQFEPLVPEGRDIFDVWGNDSNYTKIVAAVDMFFHMFKKHECASFRYGTIVSRFKDCAALATFGHLCKITGMSTEDVTTWILNREVADEMVQMMLPGQEIDKADSYMPYLIDFGLSSKSPYSSVKNPAFHFWGQLTALLLRSTRARNARQPDDIEYTSLTTAGLLYAYAVGSSADLAQQFCVGDNKYTPDDSTGGLTTNAPPQGRDVVEWLGWFEDQNRKPTPDMMQYAKRAVMSLQGLREKTIGKYAKSEFDK”, the “soluble on expression in E. coli” value is reported as “soluble”. The entry for “MQNGYTYEDYQDTAKWLLSHTEQRPQVAVICGSGLGGLVNKLTQAQTFDYSEIPNFPESTVPGHAGRLVFGILNGRACVMMQGRFHMYEGYPFWKVTFPVRVFRLLGVETLVVTNAAGGLNPNFEVGDIMLIRDHINLPGFSGENPLRGPNEERFGVRFPAMSDAYDRDMRQKAHSTWKQMGEQRELQEGTYVMLGGPNFETVAECRLLRNLGADAVGMSTVPEVIVARHCGLRVFGFSLITNKVIMDYESQGKANHEEVLEAGKQAAQKLEQFVSLLMASIPV” is “soluble”; for “MSLSNLTIDVQTVTQKGKKPYIEYQINRPSFHNFSDSKFQNKLNFYYKKSTDKFKTRLEKDAKKYYKETEGSSTPFHPYVANVDYKVSLNKPPLLSLYLNYYQYTGGAHGMYTWKANTFDLKEKKLLHLDDLFQQEDKYKEVIRAEIVRKIKQNEGIYFPDATEKVMSTKKFHFFLEPNNLVIYFPLYEIAPYSSGIPQFRIPYTLLREYLKPSYQNILIDNKEGHHHHHH” it is “soluble”; for “MAHHHHHHMTRTKVKKVQMQMKARETVAPPSTACTTTRCLYTLTTFDVKSGGVKTSGEFPAGGGPKLPRDPLLHYFVKSLHGFLSTCLVVTSQRLVTFSANNNFFCIATVFPTLHTSPSVKNSKSLALRGKTENVVTERLGV” it is “not soluble”. Turning to “MYHNSSQKRHWTFSSEEQLARLRADANRKFRCKAVANGKVLPNDPVFLEPHEEMTLCKYYEKRLLEFCSVFKPAMPRSVVGTACMYFKRFYLNNSVMEYHPRIIMLTCAFLACKVDEFNVSSPQFVGNLRESPLGQEKALEQILEYELLLIQQLNFHLIVHNPYRPFEGFLIDLKTRYPILENPEILRKTADDFLNRIALTDAYLLYTPSQIALTAILSSASRAGITMESYLSESLMLKENRTCLSQLLDIMKSMRNLVKKYEPPRSEEVAVLKQKLERCHSAELALNVITKKRKGYEDDDYVSKKSKHEEEEWTDDDLVESL”, the “soluble on expression in E. coli” value was “not soluble”. For “QQRQRRKRKELTNLIRRFRNGAESLPDAVVVFRAEGNIVWCNRLAQHLLGFHWPEDSGQPISNLIRTPDFIKYLNKKDFSEPLEMRSPLNVERMLELRIVPYTEGEHLMVVRDVS”, the “soluble on expression in E. coli” value is recorded as “soluble”. As for “MSLKKEYLQCQSLVDVVRLRALHSPNKKSCTFLNKELEETMTYEQLDQHAKAIAATLQAEGAKPGDRVLLLFAPGLPLIQAFLGCLYAGCIAVPIYPPAQEKLLDKAQRIVTNSKPVIVLMIADHIKKFTADELNTNPKFLKIPAIALESIELNRSSSWQPTSIKSNDIAFLQYTSGSTMHPKGVMVSHHNLLDNLNKIFTSFHMNDETIIFSWLPPHHDMGLIGCILTPIYGGIQAIMMSPFSFLQNPLSWLKHITKYKATISGSPNFAYDYCVKRIREEKKEGLDLSSWVTAFNGAEPVREETMEHFYQAFKEFGFRKEAFYPCYGLAEATLLVTGGTPGSSYKTLTLAKEQFQDHRVHFADDNSPGSYKLVSSGNPIQEVKIIDPDTLIPCDFDQVGEIWVQSNSVAKGYWNQPEETRHAFAGKIKDDERSAIYLRTGDLGFLHENELYVTGRIKDLIIIYGKNHYPQDIEFSLMHSPLHHVLGKCAAFVIQEEHEYKLTVMCEVKNRFMDDVAQDNLFNEIFELVYENHQLEVHTIVLIPLKAMPHTTSGKIRRNFCRKHLLDKTLPIVATWQLNKIEEGHHHHHH”, the “soluble on expression in E. coli” value was “soluble”.

For “MGSDKIHHHHHHVRFCCHHDWLYGVLHLPQQPVTRGVLIVVGGPQYRVGSHRQFVLLARYLAERGIAVMRFDFRGMGDSDGEIRTFEHVGEDLRSAADFFFSECPFLEDIVIWGLCDAASAALFHAHQDSRVSGLVLLNPWVRTEQGIAKAYLKHYYLERLFDPEFWKKLLGGKFNPLASIRSLYEFGRNSLRGGKSPAVSEKSAGSACDLTVPLPERMLDGLKRFQGKILIITSGNDLTAREFLDLVDSSADWQATLRTKQTELCHMESANHTFSTREWRDQVTELTANRVLSW”, the “soluble on expression in E. coli” value is on record as “not soluble”.

As for “MGSDKIHHHHHHMQLLKELCSIHAPSGNEEPLKDFILEYIRSNAGSWSYQPVIYADNDLQDCIVLVFGNPRTAVFAHMDSIGFTVSYNNHLHPIGSPSAKEGYRLVGKDSNGDIEGVLKIVDEEWMLETDRLIDRGTEVTFKPDFREEGDFILTPYLDDRLGVWTALELAKTLEHGIIAFTCWEEHGGGSVAYLARWIYETFHVKQSLICDITWVTEGVEAGKGVAISMRDRMIPRKKYVNRIIELARQTDIPFQLEVEGAGASDGRELQLSPYPWDWCFIGAPEKDAHTPNECVHKKDIESMVGLYKYLMEKL”, the “soluble on expression in E. coli” value is listed as “not soluble”. Turning to “MGNRIPDEIVDQVQKSADIVEVIGDYVQLKKQGRNYFGLCPFHGESTPSFSVSPDKQIFHCFGCGAGGNVFSFLRQMEGYSFAESVSHLADKYQIDFPDDITVHSGARPESSGEQKMAEAHELLKKFYHHLLINTKEGQEALDYLLSRGFTKELINEFQIGYALDSWDFITKFLVKRGFSEAQMEKAGLLIRREDGSGYFDRFRNRVMFPIHDHHGAVVAFSGRALGSQQPKYMNSPETPLFHKSKLLYNFYKARLHIRKQERAVLFEGFADVYTAVSSDVKESIATMGTSLTDDHVKILRRNVEEIILCYDSDKAGYEATLKASELLQKKGCKVRVAMIPDGLDPDDYIKKFGGEKFKNDIIDASVTVMAFKMQYFRKGKNLSDEGDRLAYIKDVLKEISTLSGSLEQEVYVKQLASEFSLSQESLTEQLSVFSKQNKPADNSGETKTRRAHLTTKARQKRLRPAYENAERLLLAHMLRDRSVIKKVIDRVGFQFNIDEHRALAAYLYAFYEEGAELTPQHLMARVTDDHISQLLSDILMLQVNQELSEAELSDYVKKVLNQRNWSMIKEKEAERAEAERQKDFLRAASLAQEIVTLNRS”, the “soluble on expression in E. coli” value is listed as “not soluble”. For “MGSDKIHHHHHHMLCSGYLGHDMEDDCDIIIIGAGIAGTACALRCARAGLSVLLLERAEIPGSKNLSGGRLYTHALAELLPQFHLTAPLERRITHESLSLLTPDGVTTFSSLQPGGESWSVLRARFDPWLVAEAEKEGVECIPGATVDALYEENGRVCGVICGDDILRARYVVLAEGANSVLAERHGLVTRPAGEAMALGIKEVLSLETSAIEERFHLENNEGAALLFSGRICDDLPGGAFLYTNQQTLSLGIVCPLSSLTQSRVPASELLTRFKAHPAVRPLIKNTESLEYGAHLVPEGGLHSMPVQYAGNGWLLVGDALRSCVNTGISVRGMDMALTGAQAAAQTLISACQHREPQNLFPLYHHNVERSLLWDVLQRYQHVPALLQRPGWYRTWPALMQDISRDLWDQGDKPVPPLRQLFWHHLRRHGLWHLAGDVIRSLRCL” the value was “not soluble”.

Source of the values: the DeepSol protein solubility set.
